Each block holds one binder with its values, some of them ahead of it.
Key:
[1] = molecular target: T1, murine CD19 protein (murine, UniProt P25918 17-287, limits assumed); assay: ELISA, coated murine CD19
T1 construct: bought protein; also called commercial murine CD19
T1 sequence (looked up): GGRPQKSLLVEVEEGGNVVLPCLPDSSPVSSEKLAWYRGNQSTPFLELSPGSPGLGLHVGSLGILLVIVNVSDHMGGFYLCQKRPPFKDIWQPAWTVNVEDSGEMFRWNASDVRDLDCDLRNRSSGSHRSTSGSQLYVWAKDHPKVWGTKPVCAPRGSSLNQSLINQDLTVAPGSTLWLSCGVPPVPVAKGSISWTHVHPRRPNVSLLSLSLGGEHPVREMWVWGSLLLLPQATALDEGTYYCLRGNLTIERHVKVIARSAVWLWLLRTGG
Summary of the method: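 Plates coated overnight at 4° C with recombinant murine or monkey CD19 and blocked with 2% BSA. Chimeric antibodies, serially diluted from 100 nM, bound for 2 h at 37° C. TMB development for 10 min with OD450 read-out.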

[2] = molecular target: T2, Human CD19-his protein (human, UniProt P15391 20-291); assay: ELISA, antibody at 10 nM
T2 construct: bought protein; also called human CD19 protein; recombinant human CD19-His; not shown: His tag
T2 sequence (looked up): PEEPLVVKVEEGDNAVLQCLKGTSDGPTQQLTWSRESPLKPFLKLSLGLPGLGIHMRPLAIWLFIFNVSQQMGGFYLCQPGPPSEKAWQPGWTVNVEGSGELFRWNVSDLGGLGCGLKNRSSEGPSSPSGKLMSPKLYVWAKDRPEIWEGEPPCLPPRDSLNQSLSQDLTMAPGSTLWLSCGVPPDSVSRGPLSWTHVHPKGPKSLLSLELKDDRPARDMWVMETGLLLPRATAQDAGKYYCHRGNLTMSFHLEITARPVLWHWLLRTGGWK

[3] = molecular target: T2, Human CD19-his protein; assay: ELISA, antibody at 100 nM
[4] = molecular target: T2, Human CD19-his protein; assay: ELISA, antibody at 0.01 nM
[5] = molecular target: T2, Human CD19-his protein; assay: ELISA, antibody at 0.10 nM
[6] = molecular target: T2, Human CD19-his protein; assay: ELISA, antibody at 1.00 nM
[7] = molecular target: T2, Human CD19-his protein; assay: ELISA, antibody at 0.001 nM
[8] = molecular target: T2, Human CD19-his protein; assay: ELISA, antibody at 0.0001 nM
[9] = molecular target: T2, Human CD19-his protein; assay: ELISA on coated human CD19-His
Procedure: (§1) Human CD19-his protein (purchased from ACROBiosystems, catalog number: CD9-H52H2) was diluted with PBS to a final concentration of 4 μg/mL, and then added to a 96-well ELISA plate at 100 μl/well. The plate was sealed with a plastic film and incubated overnight at 4° C., the plate was washed 2 times with PBS the next day, and then a blocking solution [PBS+2% (w/w) BSA] was added for blocking at room temperature for 2 h. The blocking solution was poured off, and 100 nM gradiently diluted CD19 chimeric antibody or control antibody was added at 50 μl/well. After incubation at 37° C. for 2 h, the plate was washed 3 times with PBS. […] TMB substrate was added at 50 μl/well, and incubated at room temperature for 10 min, and then a stop solution (1.0 N HCl) was added at 50 μl/well. The OD450 nm values were read by an ELISA microplate reader (Multimode Plate Reader, EnSight, purchased from Perkin Elmer).

[10] = molecular target: T3, human CD19 exon1-3-his protein (human, UniProt P15391 20-186, limits assumed); assay: ELISA, coated at 2 ug/mL
T3 construct: made in HEK293E cells; also called membrane-distal end; not shown: His tag
T3 sequence (looked up): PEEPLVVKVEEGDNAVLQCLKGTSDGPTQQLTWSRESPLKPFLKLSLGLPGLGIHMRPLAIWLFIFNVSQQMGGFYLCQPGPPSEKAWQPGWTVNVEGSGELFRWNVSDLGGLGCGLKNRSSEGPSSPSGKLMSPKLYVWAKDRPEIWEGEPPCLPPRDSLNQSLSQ
Procedure: as §1
CD19 protein contains 4 exons in the extracellular region, in which exons 1-3 are located at the membrane-distal end and exon 4 is located at the membrane-proximal end. […] To identify the distribution of antigen binding epitopes of the chimeric antibodies, human CD19 exon 1-3-His (membrane-distal end) was used to coat at 2 μg/mL according to the ELISA method in example 5.1.

- binding result [1]: no binding
- OD450 [2]: 2.63
- OD450 [3]: 2.75
- OD450 [4]: 0.81
- OD450 [5]: 2.08
- OD450 [6]: 2.6
- OD450 [7]: 0.18
- OD450 [8]: 0.08
- EC50 (read off the curve) [9]: ~0.03 nM
B1: F3.124.7 (antibody, human IgG1, V domains shown)
VH: EVQLQQSGPVLVKPGASVKMSCKASGYTFTDYYMNWVKQRHGKSLEWIGISNPYNGGTSYNQKFKDKATLTVDKSSSTAYMELNSLTSEDSAVYYCAREGGTAQPTSGMDYWGQGTSVTVSS
VL: NIMMTQSPSSLAVSAGEKVTMSCKSSQSVLYSSNQKNYLAWYQQKPGQSPKLLIYWASTRESGVPDRFTGSGSGTDFTLTISSVQPEDPAVYYCHQYRSSYTFGGGTKLEIK
notes: human-murine chimeric antibody, human IgG1

- binding result [1]: no binding
- OD450 [2]: 2.9
- OD450 [3]: 3.21
- OD450 [4]: 0.19
- OD450 [5]: 1.02
- OD450 [6]: 2.27
- OD450 [7]: 0.07
- OD450 [8]: 0.05
- EC50 (read off the curve) [9]: ~0.3 nM
B2: F3.118.14 (antibody, human IgG1, V domains shown)
VH: QVQLQQSGAELVRPGASVTLSCKASGYTFPDYEIHWVKQTPVHGLEWIGAIDPETGGIGYNQKFTGKAMLTADKSSSTAYMELRSLTSEDSAVYFCTRNYGSRWGQGSTLTVSS
VL: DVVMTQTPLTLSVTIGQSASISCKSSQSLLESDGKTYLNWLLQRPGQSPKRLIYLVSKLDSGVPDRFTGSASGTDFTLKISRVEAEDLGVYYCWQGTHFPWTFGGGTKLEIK
notes: as for B1

- binding result [10]: no binding
- binding result [1]: no binding
- OD450 [2]: 1.75
- OD450 [3]: 1.77
- OD450 [4]: 0.27
- OD450 [5]: 1.33
- OD450 [6]: 1.93
- OD450 [7]: 0.08
- OD450 [8]: 0.05
- EC50 (read off the curve) [9]: ~0.04 nM
B3: F4.107.12 (antibody, human IgG1, V domains shown)
VH: EVQLQQSGPELVKPGASVKMSCKASGYTFTSYVLHWVRQKPGQGLEWIGYFNPYNDGTEYNEKFKGKAILTSDKSSSTAYMELNSLTSEDSAVYYCVGGTYYYGSSYPFAYWGQGTLVTVST
VL: DVVMTQISLSLPVSLGDQASISCRSSQSLIHSNGNTYLQWYLQKPGQSPKLLIYKVSNRLSGVPDRFSGSGSGTDFTLKISRVEAEDLGVYFCSQSTHVPYTFGGGTKLEIK
notes: as for B1

- binding result [10]: no binding
- binding result [1]: no binding
- OD450 [2]: 1.55
- OD450 [3]: 1.52
- OD450 [4]: 0.24
- OD450 [5]: 0.85
- OD450 [6]: 1.6
- OD450 [7]: 0.18
- OD450 [8]: 0.09
- EC50 (read off the curve) [9]: ~0.08 nM
B4: F4.82.11 (antibody, human IgG1, V domains shown)
VH: QVTLKESGPGILQASQTLSLTCSFSGFSLSTFGIGVGWVRQPSGKGLEWLAHIWWNDNKFFNTTLKNRLTLSKDPSNNQVFLKIASVDTADTATYYCARSRSALITTGLYAMDYWGQGTSVTVSS
VL: DIQMTQTPSSLSASLGDRVTISCRSSQDISNYVNWYQQKPDGTVKVLINYTSRLHSGVPSRFSGSGSGTDYSLTISNLEQEDIASYFCQQGFTLPYTFGGGTKLEIK
notes: as for B1

- binding result [10]: no binding
- binding result [1]: no binding
- OD450 [2]: 2.01
- OD450 [3]: 2.07
- OD450 [4]: 0.26
- OD450 [5]: 1.28
- OD450 [6]: 2.12
- OD450 [7]: 0.07
- OD450 [8]: 0.05
- EC50 (read off the curve) [9]: ~0.06 nM
B5: F4.152.7 (antibody, human IgG1, V domains shown)
VH: QVQLQQPGAELVKPGASVKLSCKASGYTFTSYWMHWVKQRPGQGLEWIGEIDPSDSYTNYNQKFKGKATLTADKSSSTAYMQLSGLTSEDSAVYHCARGGDYDGYYVMDYWGQGTSVTVSS
VL: EIVLTQSPTTMAASPGEKITITCSASSSISSNYLHWYQQKPGFSPKLLIYRTSNLASGVPARFSGSGSGTSYSLTIGTMEADDVATYYCQQGSYIPRIFTFGSGTKLEIK
notes: as for B1

- binding result [10]: no binding
- binding result [1]: no binding
- OD450 [2]: 0.58
- OD450 [3]: 0.79
- OD450 [4]: 0.1
- OD450 [5]: 0.37
- OD450 [6]: 0.6
- OD450 [7]: 0.06
- OD450 [8]: 0.05
- EC50 (read off the curve) [9]: ~0.1 nM
B6: F4.4.6 (antibody, human IgG1, V domains shown)
VH: QVQLQQSGAELARPGASVKLSCKASGYTFTSYWMQWVKQRPGQGLEWIGAIYPGDGDSRYTQKFKGKATLTADKSSSTAYMQLSSLASEDSAVYYCARSTTTVLGNNFEYWGQGTTLTVSS
VL: QIVLTQSPAIMSALPGEKVTMTCSASSSVSSMHWYQQKSGTSPKRWIYDTSKLASGVPARFSGSGSGTSYSLTISSMEAEDAATYYCQQWSSNPWTFGGGTKLEIK
notes: as for B1

- binding result [10]: no binding
- binding result [1]: no binding
- OD450 [2]: 1.94
- OD450 [3]: 1.87
- OD450 [4]: 0.23
- OD450 [5]: 1.09
- OD450 [6]: 1.73
- OD450 [7]: 0.08
- OD450 [8]: 0.06
- EC50 (read off the curve) [9]: ~0.07 nM
B7: F4.78.1 (antibody, human IgG1, V domains shown)
VH: QVQIQQSGAELARPGASVKLSCKASGYTFTNYWMQWIKQRPGQGLEWIGAIYPGDGDTRYTQKFKGKATLTADKSSSTAYMQLSSLASEDSAVYYCAREEVWSPYGMDYWGQGTSVTVSS
VL: QIVLTQSPAIMSASPGEKVTITCSASSSVSYMGWFQQKPGTSPKLWIYSTSNLASGVPARFSGSGSGTSYSLTISRMEAEDAATYYCQQRSIYPLTFGAGTKLELK
notes: as for B1

- binding result [10]: no binding
- binding result [1]: no binding
- OD450 [2]: 1.54
- OD450 [3]: 1.84
- OD450 [4]: 0.23
- OD450 [5]: 1.07
- OD450 [6]: 1.68
- OD450 [7]: 0.09
- OD450 [8]: 0.06
- EC50 (read off the curve) [9]: ~0.06 nM
B8: F4.125.12 (antibody, human IgG1, V domains shown)
VH: EVKLVESGGGLVQPGGSLKLSCAASGFTFSTYTMSWVRQTPEKRLEWVAFISSGGGHINYPDTVKGRFTISRDNAKNTLYLQMSSLKSEDTAMYYCARHSYWFFDVWGAGTTVTVSS
VL: DVQITQSPSYLAASPGETITINCRASKNIDTYLAWYQEKPGKTNKLLIYSGSTLQSGIPSRFRGGGSGTDFTLTICSLEPEDFAMYYCQQHNEYPLTFGAGTKLELK
notes: as for B1

- binding result [1]: no binding
- OD450 [2]: 2.94
- OD450 [3]: 3.01
- OD450 [4]: 0.22
- OD450 [5]: 0.98
- OD450 [6]: 2.66
- OD450 [7]: 0.07
- OD450 [8]: 0.05
- EC50 (read off the curve) [9]: ~0.2 nM
B9: F3.148.10 (antibody, human IgG1, V domains shown)
VH: EVQLQQSGAELVRPGSSVTMSCKTSGYTFTNYGINWVKQRPGQGLEWIGYIFIGNDYTEYNEKFKGKATLTSDTSSSTAYMQLSSLTSEDSAIYFCTRFYSNYYGMDPWGQGTSVTVSS
VL: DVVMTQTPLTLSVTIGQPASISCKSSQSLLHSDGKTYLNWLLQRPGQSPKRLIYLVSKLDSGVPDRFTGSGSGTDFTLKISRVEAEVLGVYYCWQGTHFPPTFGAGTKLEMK
notes: as for B1

- binding result [10]: no binding
- binding result [1]: no binding
- OD450 [2]: 1.73
- OD450 [3]: 1.84
- OD450 [4]: 0.27
- OD450 [5]: 1.11
- OD450 [6]: 1.79
- OD450 [7]: 0.08
- OD450 [8]: 0.06
- EC50 (read off the curve) [9]: ~0.06 nM
B10: F4.145.9 (antibody, human IgG1, V domains shown)
VH: EVQLVESGGGLVKPGGSLKLSCAAAGFAFSSYDMSWVRQIPEKRLEWVAYISAGGGNTYFLDTVKGRFTISRDHAKNTLSLQMSSLKSEDTAMYFCVRHGDYYRYFYAMDYWGQGSSVTVSS
VL: DIVMTQSHKFMSTSVGDRVSITCKASQDVGTAVAWSQQKPGQSPKLLIYWASTRHTGVPDRFTGSGSGTDFTLTISNVQSEDLADYFCQQFVTYPYTFGGGTKLEIK
notes: as for B1

Source: patent publication US20250042994A1 (HAINAN SIMCERE ZAIMING PHARMACEUTICAL, published 2025)
